T1: hTLT-1 ECD-His (human, UniProt Q86YW5 16-162)
T1 construct: Extracellular domain of human TLT-1 with C-terminal His-6 tag; the range 16-168 is computed from these; also called TLT-1-His; His tagged human TLT1
T1 sequence: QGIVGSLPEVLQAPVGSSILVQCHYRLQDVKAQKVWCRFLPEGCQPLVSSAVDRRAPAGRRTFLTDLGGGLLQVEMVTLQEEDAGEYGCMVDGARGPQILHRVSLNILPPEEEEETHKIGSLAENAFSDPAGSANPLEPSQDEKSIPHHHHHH

T2: hTLT-1 ECD-HPC4 F54A (human, UniProt Q86YW5 16-162)
T2 construct: Built as m17; also called Ala mutant 12
T2 chain: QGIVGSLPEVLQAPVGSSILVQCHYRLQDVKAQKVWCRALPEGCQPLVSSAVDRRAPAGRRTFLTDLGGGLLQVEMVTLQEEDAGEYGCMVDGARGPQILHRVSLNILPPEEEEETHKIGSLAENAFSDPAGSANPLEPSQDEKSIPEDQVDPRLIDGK

T3: hTLT-1 ECD-HPC4 S119A (human, UniProt Q86YW5 16-162)
T3 construct: Built as m17; also called Ala mutant 33
T3 chain: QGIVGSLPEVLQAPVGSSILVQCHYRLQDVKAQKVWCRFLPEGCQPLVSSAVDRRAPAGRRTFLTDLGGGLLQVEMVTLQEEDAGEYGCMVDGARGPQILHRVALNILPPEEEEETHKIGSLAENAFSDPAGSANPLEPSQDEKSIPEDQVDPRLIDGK

T4: hTLT-1 ECD-HPC4 R117A (human, UniProt Q86YW5 16-162)
T4 construct: Built as m17; also called Ala mutant 32
T4 chain: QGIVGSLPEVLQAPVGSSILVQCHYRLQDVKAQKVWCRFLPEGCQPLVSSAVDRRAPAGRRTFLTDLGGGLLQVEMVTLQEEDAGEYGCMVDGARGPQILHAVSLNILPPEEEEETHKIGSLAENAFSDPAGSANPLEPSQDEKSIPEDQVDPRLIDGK

T5: hTLT-1 ECD-HPC4 M91A (human, UniProt Q86YW5 16-162)
T5 construct: Built as m17; also called Ala mutant 24
T5 chain: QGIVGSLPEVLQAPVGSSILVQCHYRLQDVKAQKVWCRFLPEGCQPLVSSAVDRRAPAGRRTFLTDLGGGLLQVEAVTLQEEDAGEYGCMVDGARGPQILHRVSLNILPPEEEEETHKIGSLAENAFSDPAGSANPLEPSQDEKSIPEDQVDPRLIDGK

T6: hTLT-1 ECD-HPC4 R110A (human, UniProt Q86YW5 16-162)
T6 construct: Built as m17; also called Ala mutant 30
T6 chain: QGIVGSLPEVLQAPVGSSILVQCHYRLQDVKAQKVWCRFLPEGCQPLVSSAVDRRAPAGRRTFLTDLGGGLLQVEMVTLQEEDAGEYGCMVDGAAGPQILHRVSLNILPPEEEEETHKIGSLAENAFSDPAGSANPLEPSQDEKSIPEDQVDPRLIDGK

T7: hTLT-1 ECD-HPC4 Q43A (human, UniProt Q86YW5 16-162)
T7 construct: Built as m17; also called Ala mutant 9
T7 chain: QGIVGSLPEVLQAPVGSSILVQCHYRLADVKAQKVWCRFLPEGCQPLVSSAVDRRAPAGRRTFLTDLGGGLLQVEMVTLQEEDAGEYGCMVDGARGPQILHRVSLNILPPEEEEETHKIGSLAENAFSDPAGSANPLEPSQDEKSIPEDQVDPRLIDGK

T8: hTLT-1 ECD-HPC4 L42A (human, UniProt Q86YW5 16-162)
T8 construct: Built as m17; also called Ala mutant 8
T8 chain: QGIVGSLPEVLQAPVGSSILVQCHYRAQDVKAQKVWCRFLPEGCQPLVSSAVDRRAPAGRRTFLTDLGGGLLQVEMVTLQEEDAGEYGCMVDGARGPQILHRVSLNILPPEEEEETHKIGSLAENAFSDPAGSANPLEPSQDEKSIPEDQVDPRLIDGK

T9: hTLT-1 ECD-HPC4 K46A (human, UniProt Q86YW5 16-162)
T9 construct: Built as m17; also called Ala mutant 10
T9 chain: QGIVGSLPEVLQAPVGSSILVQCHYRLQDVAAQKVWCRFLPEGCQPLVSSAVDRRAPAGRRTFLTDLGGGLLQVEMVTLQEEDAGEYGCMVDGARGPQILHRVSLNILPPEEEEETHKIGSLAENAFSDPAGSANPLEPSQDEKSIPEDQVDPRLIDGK

T10: hTLT-1 ECD-HPC4 R41A (human, UniProt Q86YW5 16-162)
T10 construct: Built as m17; also called Ala mutant 7
T10 chain: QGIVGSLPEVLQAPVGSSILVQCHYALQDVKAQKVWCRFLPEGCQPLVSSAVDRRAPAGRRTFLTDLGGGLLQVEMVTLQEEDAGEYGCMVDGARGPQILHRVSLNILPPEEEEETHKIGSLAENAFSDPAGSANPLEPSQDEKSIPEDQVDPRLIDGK

T11: hTLT-1 ECD-HPC4 H116A (human, UniProt Q86YW5 16-162)
T11 construct: Built as m17; also called Ala mutant 31
T11 chain: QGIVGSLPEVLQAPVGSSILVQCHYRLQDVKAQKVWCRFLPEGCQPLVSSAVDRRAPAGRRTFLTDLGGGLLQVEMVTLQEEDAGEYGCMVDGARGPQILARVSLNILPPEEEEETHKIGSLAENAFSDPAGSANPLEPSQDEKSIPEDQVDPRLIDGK


What was measured:
hTLT-1 ECD-His = target: T1, hTLT-1 ECD-His; assay: SPR Biacore, mAb immobilised directly, TLT-1 as analyte
Description: Method: The mAbs of interest were either immobilized directly to a CM5 chip or by capture via a human Fc capture mAb immobilized to a CM5 chip, while TLT-1-His was immobilized by capture via an anti-His mAb CM5 chip for analysis of Fabs.
mAb direct capture: The TLT-1 mAbs were immobilised to a level of approx 500-1000 RU on a CM5 chip (50 μg/ml diluted in Na-acetate, pH 4.0) using the standard procedure recommended by the supplier. Two-fold dilutions of TLT-1 from 200 nM to 0.2 nM were tested for binding to the mAbs. Running and dilution buffer: 10 mM HEPES, 150 mM, 0.005% p20, pH 7.4. Regeneration was obtained by 10 mM Glycine, pH 1.7. mAb capture via human Fc mAb: Human Fc mAb was immobilised to approx 10.000 RU. The mAb of interest was added (approx 100 nM). Two-fold dilutions of TLT-1 from 200 nM to 0.2 nM were tested. Running and dilution buffer: 10 mM HEPES, 150 mM, 0.005% p20, pH 7.4. Regeneration was obtained in 3 M MgCl₂.

hTLT-1 ECD-HPC4 F54A = target: T2, hTLT-1 ECD-HPC4 F54A; assay: SPR ProteOn, mAb captured by anti-hFc, 100 nM mutant, signal 10 s after injection
Description: (§1) Each antibody was diluted in 10 mM sodium acetate pH 5.0 to a concentration of 50 μg/ml, and was immobilized to an individual flow cell at 30 μl/min for 240 s. The antibodies were immobilized to flow cells A1-A6 (horizontal direction). After immobilization, the active sites on the flow cell were blocked with 1 M ethanolamine. The final immobilization level of capture antibody typically ranged from approximately 9,000 to 10,000 RU in one experiment. Capture of the anti-TLT-1 antibodies mAb0023, mAb0051, mAb0061 and mAb0062 was conducted by diluting to 0.5 μg/ml into HBS-EP buffer (10 mM HEPES, 150 mM NaCl, 3 mM EDTA, 0.05% surfactant P20, pH 7.4) and injected at 30 μl/min for 60 s in vertical direction, creating interspot reference points with only anti-human Fc antibodies.
(§2) The final capture level of test antibodies typically ranged from approximately 200 to 300 RU in one experiment. Binding of wt or Ala mutant hTLT-1 ECD-HPC4 protein was conducted by injecting over parallel flow cells in horizontal direction to allow for comparative analyses of binding to different captured anti-TLT-1 antibodies relative to binding to the interspot references. Each hTLT-1 ECD-HPC4 protein was diluted to 100 nM, based on the calculated average Mw, into HBS-EP buffer and injected at 30 μl/min for 240 s. The GLM chip was regenerated after each injection cycle of analyte via one 18 s injection of 1 M Formic acid followed by a 18s injection of 50 mM NaOH at 100 μl/min. This regeneration step removed the anti-TLT-1 antibody and any bound TLT-1 from the immobilized capture antibody surface, and allowed for the subsequent binding of the next test sample pair.
(§3) Data analysis was performed using the ProteOn Manager™ Software. No significant non-specific binding to the interspot control surfaces was observed. Binding curves were processed by double referencing (subtraction of interspot control surface signals as well as blank buffer injections over captured anti-TLT-1 antibodies). This allowed correction for instrument noise, bulk shift and drift during sample injections. Binding signal at 10 s after stop of analyte injection was normalized to level of captured anti-TLT-1 antibody and presented as binding relative to wt hTLT-1 ECD-HPC4 protein.

hTLT-1 ECD-HPC4 S119A = target: T3, hTLT-1 ECD-HPC4 S119A; assay: as above
Description: as §1, §2, §3

hTLT-1 ECD-HPC4 R117A = target: T4, hTLT-1 ECD-HPC4 R117A; assay: as above
Description: as §1, §2, §3

hTLT-1 ECD-HPC4 M91A = target: T5, hTLT-1 ECD-HPC4 M91A; assay: as above
Description: as §1, §2, §3

hTLT-1 ECD-HPC4 R110A = target: T6, hTLT-1 ECD-HPC4 R110A; assay: as above
Description: as §1, §2, §3

hTLT-1 ECD-HPC4 Q43A = target: T7, hTLT-1 ECD-HPC4 Q43A; assay: as above
Description: as §1, §2, §3

hTLT-1 ECD-HPC4 L42A = target: T8, hTLT-1 ECD-HPC4 L42A; assay: as above
Description: as §1, §2, §3

hTLT-1 ECD-HPC4 K46A = target: T9, hTLT-1 ECD-HPC4 K46A; assay: as above
Description: as §1, §2, §3

hTLT-1 ECD-HPC4 R41A = target: T10, hTLT-1 ECD-HPC4 R41A; assay: as above
Description: as §1, §2, §3

hTLT-1 ECD-HPC4 H116A = target: T11, hTLT-1 ECD-HPC4 H116A; assay: as above
Description: as §1, §2, §3

| Binder | Kd (hTLT-1 ECD-His) [nM] | koff (hTLT-1 ECD-His) [s⁻¹] | kon (hTLT-1 ECD-His) [M⁻¹ s⁻¹] | binding relative to wt hTLT-1 ECD-HPC4 (hTLT-1 ECD-HPC4 F54A) | binding relative to wt hTLT-1 ECD-HPC4 (hTLT-1 ECD-HPC4 S119A) | binding relative to wt hTLT-1 ECD-HPC4 (hTLT-1 ECD-HPC4 R117A) | binding relative to wt hTLT-1 ECD-HPC4 (hTLT-1 ECD-HPC4 M91A) | binding relative to wt hTLT-1 ECD-HPC4 (hTLT-1 ECD-HPC4 R110A) | binding relative to wt hTLT-1 ECD-HPC4 (hTLT-1 ECD-HPC4 Q43A) | binding relative to wt hTLT-1 ECD-HPC4 (hTLT-1 ECD-HPC4 L42A) | binding relative to wt hTLT-1 ECD-HPC4 (hTLT-1 ECD-HPC4 K46A) | binding relative to wt hTLT-1 ECD-HPC4 (hTLT-1 ECD-HPC4 R41A) | binding relative to wt hTLT-1 ECD-HPC4 (hTLT-1 ECD-HPC4 H116A) |
| --- | --- | --- | --- | --- | --- | --- | --- | --- | --- | --- | --- | --- | --- |
| mAb0051 (antibody, V domains shown, Mouse VH/VL, human IgG4 / kappa; The entries seem to include signal peptides; also called antiTLT-1 0051mab) VH: QVQLEQSGAELVRPGVSVKISCKGSGYTFTDYSMHWVKQSHAKSLEWIGVISTYYGDVRYNQKFKGKATMTVDKSSSTAYMALARLTSEDSAIYYCARAPMITTGAWFAYWGQGTLVTVSA VL: SIVMTQTPKFLLVSAGDRVTITCKASQSVSNDVAWYQQKPGQSPKLLINYASSRYTGIPDRFTGSGYGTDFTFTISTVQAEDLAVYFCQQDYSSPYTFGGGTKLEIER | 19.3 | 0.00472 | 245000 | < 0.4 fraction of wt | < 0.6 fraction of wt | < 0.2 fraction of wt | < 0.2 fraction of wt |  |  |  |  |  |  |
| mAb0023 (antibody, V domains shown, Mouse VH/VL, human IgG4 / kappa; also called antiTLT-1 0023mab) VH: EVRLVESGGGLVQPGGSLKLSCATSGFTFSDYFMYWIRQTPEKRLEWVAYISNGGDSSSYPDTVKGRFTISRDNAKNTLYLQMSRLKSEDTAMYYCATNKNWDDYYDMDYWGQGTSVTVSS VL: DIVVSQSPSSLAVSAGEKVTMSCKSSQSLLNSRTRKNYLAWYQQKPGQSPKLLIYWASTRESGVPDRFTGSGSGTDFTLTISSVQAEDLAVYYCKQSYNLLTFGAGTKLELKR | 4.36 | 0.00125 | 287000 |  |  |  | < 0.4 fraction of wt | < 0.2 fraction of wt | < 0.2 fraction of wt | < 0.2 fraction of wt | < 0.2 fraction of wt |  |  |
| mAb0062 (antibody, V domains shown, Mouse VH/VL, human IgG4 / kappa; variant of mAb0052 (HC C91Y, Kabat); The entries seem to include signal peptides; also called antiTLT-1 0062mab; (0052HC.C91Y)2) VH: QVQLQQSGAEPMKPGASVKISCKATGYTFSSHWIEWIKQRPGHGLEWIGEILPGSGNTNYNEKFKGKATFTADTSSNTAYMQLSSLTSEDSAVYYCARGYYGLNYDWYFDVWGAGTTVTVSS VL: DIQMTQTTSSLSASLGDRVTISCRASQDISNYLNWYQQKPDGTVKLLIFYTSRLHSGVPSRFSGSGSGTDYSLTISNLEPEDIATYYCQQDTKLPYTFGGGTKLEMKR | 4.12 | 0.00134 | 326000 | < 0.6 fraction of wt |  |  | < 0.4 fraction of wt | < 0.2 fraction of wt | < 0.4 fraction of wt | < 0.6 fraction of wt |  | < 0.2 fraction of wt | < 0.6 fraction of wt |

— patent US20190083587A1 (Novo Nordisk, published 2019)
